Data as given in the emibetuzumab library of Makowski et al. (2022).

B1: VH:VL chains; a variant is named by its letters at X, in order (parent)
chain 1: QVQLVQSGAEVKKPGASVKVSCKASGYTFTDYXMHWVRQAPGQGLEWMGXVNPNXXXTTYNQKFEGRVTMTTDTSTSTAYMELRSLRSDDTAVYYCARXNXLDXWGQGTTVTVSS
chain 2: DIQMTQSPSSLSASVGDRVTITCSVSSSVSSIYLHWYQQKPGKAPKLLIYSTSNLASGVPSRFSGSGSGTDFTLTISSLQPEDFATYYCQVYSGYPLTFGGGTKVEIK

Variants of: B1
Assay: yeast display scFab, FACS + sequencing
Procedure, shortened: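 Non-specific binding was called from deep sequencing of sorted yeast cells displaying a heavy-chain CDR mutant scFab library. Cells labelled with anti-Myc and biotinylated ovalbumin (260 μg/mL in PBSB, 3 h, room temperature) or soluble membrane proteins (130 μg/mL, 20 min on ice) were FACS-sorted, collecting the top 25% and bottom 10% of binders from two replicates. A sequence was positive when present in ≥3 of 4 pooled positive samples and absent from all negatives, and negative under the converse rule.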

| Variant | non-specific binding call |
| --- | --- |
| YRRGGYAV | binds |
| YRRGGSWD | binds |
| YRRGGSWV | binds |
| YRRGSASS | binds |
| YRRGSASV | binds |
| YRRGSASD | binds |
| ARRGGSGF | binds |
| ARRGGSGS | binds |
| FRRGGAVD | binds |
| FRRGGAVV | binds |
| YRRGSAVD | binds |
| YRRGSAVA | binds |
| YRRGSAVY | binds |
| VRRGSSLF | binds |
| FRRGGSGS | binds |
| FRRGGSGV | binds |
| FRRGGSVD | binds |
| VRRGSSVS | binds |
| VRRGSSVV | binds |
| YRRGDSWD | binds |
| VRRGSASD | binds |
| YRRGSVGA | binds |
| YRRGSSGS | binds |
| YRRGSSGA | binds |
| YRRGSSGF | binds |
| VRRGSDGV | no binding |

| Variant | non-specific binding call |
| --- | --- |
| YRRGSFAA | binds |
| YRRGGSGY | binds |
| YRRGGSGA | binds |
| YRRGGSGS | binds |
| YRRGGSGD | binds |
| YRRGGSVS | binds |
| YRRGGSVD | binds |
| YRRGGSVA | binds |
| YRRGGSVF | binds |
| VRRGSSAS | binds |
| VRRGSSAF | binds |
| VRRGSSAV | binds |
| VRRGSSAD | binds |
| FRRGSALA | binds |
| VRRGDSVA | binds |
| YRRGSSVV | binds |
| YRRGSSVF | binds |
| YRRGSSVS | binds |
| YRRGGAGY | binds |
| YRRGGAGF | binds |
| YRRGGAGV | binds |
| YRRGSSSV | binds |
| YRRGSSSA | binds |
| YRRGSSAA | binds |
| YRRGSSAV | binds |
| ARRGGSVD | binds |

| Variant | non-specific binding call |
| --- | --- |
| YRRGSAWA | binds |
| YRRGSAGF | binds |
| YRRGSAGS | binds |
| VRRGGSGD | binds |
| VRRGGSGS | binds |
| FRRGGASA | binds |
| YRRGSSLF | binds |
| YRRGSSLY | binds |
| YRRGSSLS | binds |
| YRRGSSLV | binds |
| FRRGGSAA | binds |
| FRRGGSAD | binds |
| FRRGGSAF | binds |
| FRRGSAVA | binds |
| YRRGGSAV | binds |
| YRRGGSAA | binds |
| SRRGSASS | binds |
| VRRGDVGV | binds |
| YRRGSALS | binds |
| YRRGSALY | binds |
| FRRGGAAS | binds |
| FRRGGAAA | binds |
| YRRGSFGA | binds |
| YRRGGASD | binds |
| YRRGGASA | binds |
| YRRGGFGV | binds |

| Variant | non-specific binding call |
| --- | --- |
| YRRGGFGA | binds |
| SRRGGYVS | binds |
| FRRGGALD | binds |
| VRRGSAGS | binds |
| VRRGSAGD | binds |
| FRRGGAGD | binds |
| FRRGGAGY | binds |
| FRRGGAWY | binds |
| FRRGGAWV | binds |
| FRRGGAWD | binds |
| YRRGGAWD | binds |
| YRRGGAWS | binds |
| YRRGGAWV | binds |
| YRRGGAWY | binds |
| YRRGGAWA | binds |
| FRRGSSVV | binds |
| VRRGSFGA | binds |
| VRRGGAAS | binds |
| VRRGGAAA | binds |
| YRRGGAAD | binds |
| YRRGGAAS | binds |
| YRRGGAAV | binds |
| YRRGGAAY | binds |
| YRRGGAAA | binds |
| YRRGGAAF | binds |
| FRRGSSAV | binds |

| Variant | non-specific binding call |
| --- | --- |
| FRRGSSAA | binds |
| FRRGGSLD | binds |
| VRRGGALD | binds |
| YRRGGAVA | binds |
| YRRGGAVS | binds |
| YRRGGSSA | binds |
| YRRGGVGA | binds |
| YRRGGVGV | binds |
| FRRGSSGS | binds |
| FRRGSSGD | binds |
| FRRGSSGA | binds |
| ARRGSDLA | no binding |
| ARRGSSLD | no binding |
| YRRGGYVD | binds |
| VRRGGSAA | binds |
| YRRGGDGA | binds |
| YRRGGSLS | binds |
| YRRGGFVV | binds |
| ARRGSDVA | no binding |
| DRRGSDAV | no binding |
| YRRGGALV | binds |
| YRRGGALD | binds |
| YRRGGALA | binds |
| VRRGSSGD | binds |
| VRRGGAWV | binds |
| ARRGSAVS | binds |
